{"source": "patent US20240392276", "proteins": {"B1": {"name": "His-CBD-TEV protease (protein)", "chain": "HHHHHHGSGSSGLTTNPGVSAWQVNTAYTAGQLVTYNGKTYKCLQPHTSLAGWEPSNVPALWQLQGSGSSGESLFKGPRDYNPISSSICHLTNESDGHTTSLYGIGFGPFIITNKHLFRRNNGTLVVQSLHGVFKVKDTTTLQQHLVDGRDMIIIRMPKDFPPFPQKLKFREPQREERICLVTTNFQTKSMSSMVSDTSCTFPSGDGIFWKHWIQTKDGQCGSPLVSTRDGFIVGIHSASNFTNTNNYFTSVPKNFMELLTNQEAQQWVSGWRLNADSVLWGGHKVFMSKPEEPFQPVKEATQLMN"}}, "target": "eGFP displaying an MBP tag connected with a TEV cleavage site (MBP-TEVsite-eGFP)"}
{"protein": "B1", "values": [{"measurement": "digestion on Bis-tris protein gel (protease activity)", "result": "In the presence of His-CBD-TEV, MBP-TEVsite-eGFP is cleaved into the MBP tag (43 kDa) and eGFP (33 kDa)"}]}
